We go through 1 molecule from patent publication US20110059095A1 (Regeneron, published 2011).

Where no end group is shown, it is not given here. The star is where a group is joined. Biotin = O=C1N[C@H]2[C@H](CS[C@H]2CCCCC(=O)*)N1

Assay [1] addresses T1, Peptide B (human PAR-2), C-terminal biotinylated (Human, not fully specified).
T1 construct: also called Peptide B C-Term
T1 peptide: SLIGKVDGTSHVTGGGGGS-biotin
The assay is described as follows: SPR, peptide immobilized. The procedure:
(§1) In another series of experiments, equilibrium dissociation constants (KD values) for purified antibody binding to selected biotinylated and unbiotinylated forms of PAR-2 peptides were determined by surface kinetics using a real-time surface plasmon resonance biosensor assay. Neutravidin (Pierce, Rockford, Ill.) was covalently coupled to the surface of a Biacore™ C1 chip or CM5 chip using amine coupling chemistry. Biotinylated (N-Term or C-Term) PAR-2 peptides (Peptides A and B) were immobilized on the surface via the high affinity binding interaction between biotin and the amine coupled Neutravidin.
(§2) In a first experiment using this format, varying concentrations (ranging from 5 to 100 μg/ml) of purified antibody were injected at a rate of 50 μl/min over a surface coated with immobilized peptide at low-density (<1RU) for 300 seconds. Antibody-peptide binding and dissociation was monitored in real time 25° C.

Assay [2] addresses T2, Peptide A (human PAR-2), C-terminal biotinylated (Human, C-terminal biotin via G4S linker).
T2 construct: also called Peptide A C-Term
The assay is described as follows: SPR, peptide immobilized. The procedure:
as §1, §2

In assay [3] the target is T3, Peptide E (mouse PAR-2), N-terminal biotinylated (Mouse (Mus musculus), N-terminal biotin via G4S linker).
T3 construct: also called Peptide E N-Term
T3 peptide: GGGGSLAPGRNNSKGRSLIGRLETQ
The assay is described as follows: SPR, peptide immobilized.

In assay [4] the target is T4, Peptide B (human PAR-2), N-terminal biotinylated (Human).
T4 construct: also called Peptide B N-Term
T4 peptide: Biotin-GGGGSSLIGKVDGTSHVTG
Kind of assay: SPR, peptide immobilized. A general note: SPR reads the build-up and loss of mass on a sensor chip optically.

Assay [5] deals with T5, Peptide A (human PAR-2), N-terminal biotinylated (Human, N-terminal biotin via G4S linker).
T5 construct: also called Peptide A N-Term
T5 peptide: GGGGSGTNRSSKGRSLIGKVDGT
Kind of assay: SPR, peptide immobilized.

For assay [6], the target named is T6, Peptide G (rat PAR-2), N-terminal biotinylated (Rat (Rattus norvegicus), N-terminal biotin via G4S linker).
T6 construct: also called Peptide G N-Term
T6 peptide: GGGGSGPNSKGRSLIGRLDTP
Kind of assay: SPR, peptide immobilized.

Assay [7] has as its target T7, Peptide B (human PAR-2), unbiotinylated (Human).
T7 construct: also called Peptide B No Biotin
T7 peptide: SLIGKVDGTSHVTG
Kind of assay: SPR, antibody captured. The procedure: Equilibrium dissociation constants (KD values) for antigen binding to selected purified PAR-2 antibodies were determined by surface kinetics using a real-time surface plasmon resonance biosensor assay. Antibody was captured on either a rabbit anti-mouse IgG polyclonal antibody (GE Healthcare, Piscataway, N.J.) surface or a goat anti-human IgG polyclonal antibody (Jackson Immuno Research Lab, West Grove, Pa.) surface created through direct amine chemical coupling to a BIACORE™ CM5 sensor chip to form a captured antibody surface. […] Antigen-antibody binding and dissociation were monitored in real time at room temperature. Kinetic analysis was performed to calculate KD and half-life of antigen/antibody complex dissociation (Table 10). For those antibodies where no T_{1/2} value is shown, steady state analysis was used to calculate the KD value. NB: no binding observed under current experimental conditions. ND: not determined.

A further assay deals with T8, full length human PAR-2 (human, UniProt P55085 26-397).
T8 construct: overexpressed on HEK293-derived 293/D9 cells; also called 293/D9/hPAR-2rec cells
T8 sequence (P55085 26-397 G138A limits assumed): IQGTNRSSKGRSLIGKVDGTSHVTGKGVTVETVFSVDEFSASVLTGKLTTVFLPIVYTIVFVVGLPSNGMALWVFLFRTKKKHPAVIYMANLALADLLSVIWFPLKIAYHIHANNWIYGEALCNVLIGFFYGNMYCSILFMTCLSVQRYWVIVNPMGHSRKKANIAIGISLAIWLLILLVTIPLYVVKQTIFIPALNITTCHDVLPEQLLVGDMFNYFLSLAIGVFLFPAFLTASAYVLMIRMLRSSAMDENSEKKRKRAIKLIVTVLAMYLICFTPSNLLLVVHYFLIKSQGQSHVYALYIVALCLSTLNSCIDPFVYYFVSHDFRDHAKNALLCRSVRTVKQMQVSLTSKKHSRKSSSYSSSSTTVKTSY
Kind of assay: MSD cell binding. The method, then: (§3) HEK293 cells were transfected with an NF-κB-luciferase-IRES-eGFP reporter plasmid. […] A clonal cell line, named D9, having low background levels of luciferase activity and high levels of eGFP when induced with IL-1β was made by a series of successive sorts of cell populations using flow cytometry. The 293/D9 cell line was then separately transfected with human PAR-2 or mouse PAR-2 to create the stable cell lines 293/D9/h PAR-2rec and 293/D9/m PAR-2rec, respectively.
(§4) Cells were plated on MSD high-bind 96 well plates at a density of 4×10⁴ cells/well in PBS and incubated for one hour at room temperature. Cells were then blocked in PBS with 2% BSA and incubated at room temperature for one hour. Anti-PAR-2 antibodies (ranging from 100 nM to 0.098 nM) were serially diluted two-fold in PBS with 0.5% BSA and incubated with the cells for one hour at room temperature followed by washing in PBS with 0.5% BSA. Sulfo-tagged anti-human IgG antibody (MSD) at a concentration of 0.1 μg/ml was then added to the cell/antibody mixture and incubated at room temperature for an additional hour. After another wash, a 1× non-surfactant containing read buffer was added and electro-chemiluminescent signal was read on the MSD Sector Imager. Signal of antibody binding to 293/D9 cells was subtracted from signal to 293/D9/hPAR-2rec or 293/D9/mPAR-2rec cells. Subtracted data were analyzed using a sigmoidal dose-response model in GraphPad Prism and EC₅₀ and Bₘₐₓ values were reported (Table 18). EC₅₀ values are defined as the antibody concentration required to achieve 50% maximal binding (Bₘₐₓ) to cells.

A further assay concerns the target T9, full length mouse PAR-2 (mouse, UniProt P55086 26-399).
T9 construct: also called 293/D9/mPAR-2rec cells
T9 chain: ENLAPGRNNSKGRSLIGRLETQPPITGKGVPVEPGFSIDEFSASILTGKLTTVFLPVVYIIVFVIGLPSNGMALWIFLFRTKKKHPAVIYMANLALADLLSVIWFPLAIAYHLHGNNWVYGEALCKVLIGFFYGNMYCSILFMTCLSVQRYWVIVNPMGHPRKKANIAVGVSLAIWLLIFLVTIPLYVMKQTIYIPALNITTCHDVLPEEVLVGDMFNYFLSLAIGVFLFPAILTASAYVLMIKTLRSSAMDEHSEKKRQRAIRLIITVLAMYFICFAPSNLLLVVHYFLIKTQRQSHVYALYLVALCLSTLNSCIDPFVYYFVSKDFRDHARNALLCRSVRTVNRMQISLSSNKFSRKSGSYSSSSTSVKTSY
The assay is described as follows: MSD cell binding. The method, then:
as §3, §4

Assay [8] addresses T10, Peptide C (human PAR-2), N-terminal biotinylated (Human).
T10 construct: also called Peptide C N-Term
T10 peptide: Biotin-GGGGSSLIGKV
Kind of assay: SPR, peptide immobilized.

The target in assay [9] is T11, Peptide M (human PAR-4), unbiotinylated (Human).
T11 peptide: ESGSTGGGDDSTPSILPAP
Kind of assay: SPR, antibody captured.

In assay [10] the target is T12, Peptide K (human PAR-1), unbiotinylated (Human).
T12 peptide: ATNATLDPRSFLLRNPND
Kind of assay: SPR, antibody captured.

In assay [11] the target is T13, Peptide L (human PAR-3), unbiotinylated (Human).
T13 peptide: DTNNLAKPTLPIKTFRGA
The assay is described as follows: SPR, antibody captured.

Assay [12] addresses T14, Peptide F (monkey PAR-2), N-terminal biotinylated (Monkey (Macaca mulatta), N-terminal biotin via G4S linker).
T14 construct: also called Peptide F N-Term
The assay is described as follows: SPR, peptide immobilized; SPR, biotinylated peptide on the chip, bivalent antibody in solution.

T14 sequence (peptide, as listed by the source): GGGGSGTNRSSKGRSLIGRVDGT

B1: H4H590N (antibody, human IgG4, V domains shown)
VH: EVQLVESGGGLVQPGRSLRLSCAASGFTFDDYAMHWVRQAPGKGLEWVSGITWNSGTMAYADSVKGRFTISRDNAKNSLYLQMNSLRAEDTALYYCAKENWAFDYWGQGTLVTVSS
VL: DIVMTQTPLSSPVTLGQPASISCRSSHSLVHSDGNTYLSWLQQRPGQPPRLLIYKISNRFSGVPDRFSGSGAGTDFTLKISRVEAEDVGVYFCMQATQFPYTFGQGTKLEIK
notes: cloned onto human IgG4; also called H1M590N variable regions
As usually defined, the EC50 is the concentration that produces a half-maximal response. Consider B1, for which the binding result in assay [1], in assay [4], in assay [7], in [8], in assay [9] and in assay [10] was “no binding” in each case. Besides, in assay [11], the binding result is listed as “no binding”. Also, the Kd in [2] was 3.56 nM; in [3] it was 1.28 nM; in [5], 1.52 nM; in [6] it was 2.94 nM; in assay [12], 1.84 nM. The T1/2 in assay [2] amounted to 3 min; in [3], 7 min; in assay [5], 3 min; in [6], 2 min; in assay [12], 2 min. Besides, the Bmax in the assay with full length human PAR-2 amounted to 6550 MSD Unit; in the assay with full length mouse PAR-2, 13300 MSD Unit. For the same molecule, the values for the EC50 in the assay with full length human PAR-2 and with full length mouse PAR-2 were 9.72 nM and 5.76 nM, respectively.
